From patent publication CN116789813A

Tests used:
[1] = target: 野生型金黄色葡萄球菌α-溶血素(wtHla) (Staphylococcus aureus (strain MRSA 252)); assay: ELISA, wtHla coated at 2μg/mL, anti-human IgG Fab-HRP detection
[2] = target: 野生型金黄色葡萄球菌α-溶血素(wtHla) (Staphylococcus aureus (strain MRSA 252)); assay: cell-based or functional assay

B1: 全人源Hla单克隆抗体Hla-38 (antibody, V domains shown)
VH: QVQLLESGGGVVQPGRSLRLSCIVSGFDLNSFAMHWVRQPPGKGLEWVAVIWHDGSERFYAASVKGRFTISRDTSRNTLFLQMNSLRVEDTAVYYCAKSGDYYENSGYFGSWGQGALVTVSS
VL: ELVLTQSPATLSVSPGERATLSCRASQSVGNDLAWYQQKPGQAPRLLIYGASTRATGIPARFSGSGFGTEFTLTISSLQSEDFAVYYCQQYNNWWTFGQGTKVDIK
EC50 [1]: 0.33 µg/mL | 保护率 (mice injected i.p. with 15μg wtHla pre-incubated with 2.5μg antibody) [2]: < 30% | 保护率 (mice injected i.p. with 15μg wtHla pre-incubated with 5μg antibody) [2]: < 30% | 保护率 (mice injected i.p. with 15μg wtHla pre-incubated with 10μg antibody) [2]: 50% | 小鼠生存率 (mice injected i.p. with 15μg wtHla pre-incubated with 20μg antibody) [2]: > 80%
